Several values for one entry are separate records, joined by “and”; a condition that tells them apart may be missing. Equal values may be shown once. Read-outs that look alike come from different tables or passages of the source. Bridge positions count the residues as written; N and C are the ends. Ends that are not written are not given here. * marks the point of attachment. Biotin = O=C1N[C@H]2[C@H](CS[C@H]2CCCCC(=O)*)N1; Capped = not defined here

Kd data for six molecules are collected here from US20200206312A1.

For experiment [1], the target named is T1, Recombinant human NRP1 with His Tag (Sino Biological Inc.; Cat #1001-H08H) (human), O14786.
Experiment [2] has as its target T1, Recombinant human NRP1 with His Tag …. The source holds these as a separate data set.
The target is the same in experiment [3]. The source holds these as a separate data set.
Experiment [4] shares this target. The experiment is described as follows: BLI (Octet Red96), biotinylated peptide on streptavidin sensor, NRP1 in solution.

T1 sequence (O14786 other isoform, or with tags, fused parts or gaps H08H H08H limits assumed): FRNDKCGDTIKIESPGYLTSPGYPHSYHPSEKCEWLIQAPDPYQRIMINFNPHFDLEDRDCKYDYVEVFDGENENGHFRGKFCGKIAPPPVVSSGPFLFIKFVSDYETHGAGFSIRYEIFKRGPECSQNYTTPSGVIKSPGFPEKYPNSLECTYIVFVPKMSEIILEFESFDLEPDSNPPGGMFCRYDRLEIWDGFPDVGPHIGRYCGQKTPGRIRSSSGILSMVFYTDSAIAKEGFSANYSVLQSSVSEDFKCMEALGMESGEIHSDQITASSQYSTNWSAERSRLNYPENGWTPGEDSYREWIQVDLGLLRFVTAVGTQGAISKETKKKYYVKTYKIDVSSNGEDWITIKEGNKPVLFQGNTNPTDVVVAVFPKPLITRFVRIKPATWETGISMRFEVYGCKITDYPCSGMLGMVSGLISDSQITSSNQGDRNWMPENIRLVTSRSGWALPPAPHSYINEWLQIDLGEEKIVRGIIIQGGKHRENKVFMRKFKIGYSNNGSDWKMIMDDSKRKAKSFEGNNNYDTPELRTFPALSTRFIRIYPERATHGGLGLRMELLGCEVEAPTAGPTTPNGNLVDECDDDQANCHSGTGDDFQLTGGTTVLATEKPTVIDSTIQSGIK

B1: tri-peptide 1/2/3 from trypsin digestion of Lys-27 biotinylated TM601 (UM-1438-118) (peptide)
chain 1: MCMPCFTTDHQMAR
chain 2: GKCYGPQCLCR
chain 3: KCDDCCGGK
modifications: not fully specified; modifications not checked
One may read the Kd as the equilibrium constant for the complex coming apart. With B1, in experiment [1], the dissociation constant Kd is 112 nM and 187 nM.

B2: NH2(Biotin)-Y-G-P-Q-C(Capped)-L-C(Capped)-R-COOH (peptide)
peptide: Biotin-YGPQC(Capped)LC(Capped)R-OH
modifications: reading uncertain; also: printed as NH2(Biotin)-Y-G-P-Q-C(Capped)-L-C(Capped)-R-COOH
As to B2, in experiment [2], the Kd is 300 nM and 294 nM. For the molecule Biotin-CYGPQCLC(Capped)R-OH (disulfide 1-6; reading uncertain) [NH2(Biotin)-C-Y-G-P-Q-C-L-C(Capped)-R-COOH with S-S between the first two C], the equilibrium dissociation constant (Kd) in experiment [2] came out at 410 nM.

B3: NH2(Biotin)-C(Capped)-Y-G-P-Q-C(Capped)-L-C(Capped)-R-COOH (peptide)
peptide: Biotin-C(Capped)YGPQC(Capped)LC(Capped)R-OH
modifications: reading uncertain; also: printed as NH2(Biotin)-C(Capped)-Y-G-P-Q-C(Capped)-L-C(Capped)-R-COOH
On to B3, for which the Kd in experiment [3] was 153 nM and 335 nM.

B4: tri-peptide 1/2/3 from trypsin digestion of N-terminal biotinylated TM601 (UM-1438-127-1) (peptide)
chain 1: MCMPCFTTDHQMAR
chain 2: CYGPQCLCR
chain 3: KCDDCCGGK
modifications: not fully specified (N-terminus); cysteine pairing not given here
As for B4, the Kd in experiment [1] is 173 nM and 70 nM. As for Biotin-C(Capped)LC(Capped)R-OH (reading uncertain; also: printed as NH2(Biotin)-C(Capped)-L-C(Capped)-R-COOH) [NH2(Biotin)-C(Capped)-L-C(Capped)-R-COOH], the dissociation constant (Kd) in experiment [4] was 335 nM.
